From patent US20260347441 (published 2026)
Blank lines part the entries; values can stand above or below the binder they belong to.

Assays:
polatuzumab vedotin = polatuzumab vedotin (humanized); assay: SPR
human serum albumin = human serum albumin (human, UniProt P02768); assay: SPR

Chain of polatuzumab vedotin (humanized) (VH, as listed by the source, chain 1 of 2): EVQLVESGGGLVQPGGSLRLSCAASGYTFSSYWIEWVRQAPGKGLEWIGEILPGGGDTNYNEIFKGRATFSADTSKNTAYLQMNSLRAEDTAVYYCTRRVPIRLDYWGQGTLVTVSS
Chain of polatuzumab vedotin (humanized) (VL, as listed by the source, chain 2 of 2): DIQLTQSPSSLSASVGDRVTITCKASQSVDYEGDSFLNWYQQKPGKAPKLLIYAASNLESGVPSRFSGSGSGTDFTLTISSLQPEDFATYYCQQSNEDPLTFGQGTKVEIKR

binding result (polatuzumab vedotin): no binding
B1: ABC3315 (antibody, V domains shown)
VH: EVQLVESGGGLVKPGGSLKLSCAASGFTFSGYAMSWFRQAPEKRLEWVATISSGGSYTYYLDSVKGRFTISRDNSKNTLYLQMSSLRSEDTAVYYCLASLITTDYFEYWGQGTLVTVSS
VL: DIVMTQSPSSLSASVGDRVTITCRASQDVGTAVAWYQQKPGQSPKLLIYWASTRHTGVPDRFSGSGSGTDFTLTISGLQSEDEADYFCQQYSNYPYTFGGGTKLEIKR
modifications: peg12-biotin conjugated, immobilized on streptavidin; vc-MMAE conjugate (ADC)

Kd (human serum albumin): 2.34 µM
B2: ABC3315-WEDD (antibody, V domains shown)
VH: B1 VH
VL: B1 VL

Kd (human serum albumin): 10.5 µM
B3: ABC3315-WE (antibody, V domains shown)
VH: B1 VH
VL: B1 VL
